Data published in patent US20240277861A1, “ANTI-HEPATITIS B VIRUS AGENT TARGETING HOST FACTOR LIPG” (PUROTECH BIO, INC., priority 2021, published 2024).
Changes are numbered by the printed parent chain.

Key:
[1] = biological target: T1, full-length form of LIPG (500 amino acids) (Homo sapiens, UniProt Q9Y5X9); assay: Pull-down assay of LIPH4 peptides against full-length LIPG; type: binding; settings: culture supernatant of transfected 293T cells, compared with no bait
T1 construct: A pull-down assay was performed on the full-length form of LIPG (500 amino acids); made in house
T1 sequence (Q9Y5X9 21-500): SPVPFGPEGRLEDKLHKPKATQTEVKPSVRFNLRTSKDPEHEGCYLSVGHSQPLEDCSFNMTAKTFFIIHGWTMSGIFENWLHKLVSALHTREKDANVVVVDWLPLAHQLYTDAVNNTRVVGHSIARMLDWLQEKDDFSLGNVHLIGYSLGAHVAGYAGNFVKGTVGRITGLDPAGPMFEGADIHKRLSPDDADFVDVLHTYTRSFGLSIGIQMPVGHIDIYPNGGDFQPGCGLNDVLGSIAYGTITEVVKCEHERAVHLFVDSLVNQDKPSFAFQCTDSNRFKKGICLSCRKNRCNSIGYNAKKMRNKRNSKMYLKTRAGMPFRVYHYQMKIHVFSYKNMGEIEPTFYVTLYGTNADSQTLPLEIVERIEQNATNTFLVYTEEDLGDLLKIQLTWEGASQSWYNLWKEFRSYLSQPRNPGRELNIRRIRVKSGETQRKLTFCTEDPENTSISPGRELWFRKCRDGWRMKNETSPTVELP
Procedure: Human embryonic kidney 293T cells were cultured in DMEM (1.0 g/l glucose) with L-Gln and Sodium Pyruvate, liquid (Nacalai) supplemented with 10% FCS ([…]). Plating was performed in a 1:2 ratio on 6 cm dishes 24 hours before transfection. Lipofectamine 2000 in a volume of 20 μl was added to 500 μl of Opti-MEM 1 and allowed to stand for 5 minutes at room temperature, and the resulting mixture was gently added to a 6 cm dish containing a mixture of 500 μl of Opti-MEM 1 and 8 μg of a plasmid DNA. The resulting mixture was allowed to stand for 20 minutes at room temperature, and then added to a 6 cm dish containing 293T cells, and the cells were cultured at 37° C. in 5% CO2 for 4 to 6 day.
Resin (Streptavidin MagneSphere Paramagnetic Particles) (Promega) was washed using the MagneSphere Technology Magnetic Separation Stand (tweleve-position). The resin in a volume of 40 μl was added to each 1.5 ml tube, and after removal of the solution, washed three times with 1 ml of PBS. The resin was transferred to new tubes and mixed with 0.5 nmol (109 μl) of LIPG-BioFLAGHis or with 109 μl of PBS as a no bait control, and the resulting mixtures were agitated at 4° C. for 1 hour by rotation on a mini-disk rotor (BIO CRAFT) to allow binding. After removal of the solution, the resin was washed three times with 1 ml of TBST (containing 0.05% Tween 20). The resin was transferred to new tubes, blocked with 1 ml of ELISA BSA buffer (TBS, 0.05%, Tween 20, 1% BSA. Nacalai Tesque, Inc.) at 4° C. for 1 hour, and then washed three times with 1 ml of ELISA BSA buffer. The resin was transferred to new tubes, and 1000 μl of the culture supernatant containing expressed KIgk-LIPH4 was mixed with […] of the resin treated with LIPG-BioFLAGHis or without the bait, and the resulting mixtures were agitated at 4° C. for 1 hour and 30 minutes by rotation on a mini-disk rotor (BIO CRAFT) to allow binding. After removal of the solution, the resin was washed three times with […] of TBST (Tween 20, 0.1%), and the recovered resin was used for Western blotting.
Each resin was mixed with water and LDS sample buffer (4×), 0.2 mM DTT, heated at 70° C. for 10 minutes, and then subjected to SDS-PAGE. SDS-PAGE was performed using 4-12% Bis-Tris gel and NuPAGE MES-SDS electrophoresis buffer (Invitrogen) at 200 V and 400 mA for 35 minutes. After electrophoresis, transfer was performed using Mini Format, 0.2-μm PVDF, Single-application (BIO-RAD) Trans-Blot Turbo. The membrane was blocked with a Blocking One Buffer: TBST (1:9) solution and reacted with an anti-Flag-HRP (Sigma: A8592) diluted 2:3000 in a Blocking One Buffer: TBST (1:9) solution. Detection was performed using ECL (Enhanced ChemiLuminescence) on a ChemiDoc (BIO-RAD).
A pull-down assay was performed on the full-length form of LIPG (500 amino acids) with LIPH4 peptides (FIG. 16).

HBV [2] = assay: Anti-HBV activities of LIPG-binding peptides in PXB cells; type: cell-based; settings: for anti-HBV activity (effect to reduce HBV DNA and cccDNA copy numbers): HBV-infected PXB cells
Procedure: (§1) An infection source medium was prepared by adding the HBV-infected chimeric mouse serum (PhoenixBio), DMSO, and a PEG 8000 solution to the PXB cell culture medium (PhoenixBio) at final concentrations of 5 genome equivalents/cell, 2%, and 4%, respectively. Various synthesized peptides were diluted to different concentrations in this medium, and the resulting media were added individually to PXB cells (PhoenixBio). After the cells were left to stand in a 5% CO2 incubator at 37° C. for 20 to 28 hours, the medium was removed and the wells were washed once with PBS(−). DMSO and one of the various synthesized peptides were added to the PXB cell culture medium at a final concentration of 2% and different concentrations, respectively, and the resulting media were added individually to the PXB cells to perform medium exchange. This medium exchange was performed at 1, 5, and 9 days post infection and samples were collected at 14 days post infection.
(§2) SMI TEST™ M EX-R&D (Medical & Biological Laboratories) was used to extract DNA from the samples. The extracted DNA was used as a template for quantitative PCR of HBV-DNA. For cccDNA detection, the extracted DNA was treated with T5 exonuclease (New England Biolabs), and the resulting DNA was used as a template for quantitative PCR. The T5 exonuclease treatment was performed at 37° C. for 30 minutes, and the DNase was later inactivated by heating at 80° C. for 15 minutes. The following primer set was used for detection.
PXB cells, fresh human liver cells isolated from PXB mice (human hepatocyte chimeric mice), are human liver cells that maintain human liver functions at high levels and allow persistent infection with hepatitis B virus (HBV). Therefore, PXB cells were used to evaluate the anti-HBV activities of LIPG-binding peptides. LIPG-binding peptides were chemically synthesized because they were added extracellularly (Eurofins Genomics K.K.). Clones that had shown excellent results in the studies of Examples 10 and 1 (KIgk-LIPH4-23, KIgk-LIPH4-74, KIgk-LIPH4-15, KIgk-L1l 14-2. KIgk-LIPH14-14. KIgk-LIPH4-87) were selected for chemical synthesis of the peptides. […] Therefore, LIPH4-NTNA and LIPH4-NTNB, which share a common sequence with netrins and consist of 16 amino acids, were also chemically synthesized. The chemically synthesized peptides were dissolved in DMSO for use in HBV assays in PXB cells.
Next, the anti-HBV activity of full-length Netrin-1 was examined in PXB cells. A full-length human recombinant Netrin-1 protein consisting of 604 amino acid residues (molecular weight: 67.5 kDa, SEQ ID NO: 28) was purchased from R&D Systems. United States. A shRNA with the sequence […]ctcgagc[…] TTTTTTG (single underline: terminal sequences for cloning, lowercase letters: hairpin loop sequence) (SEQ ID NO: 64) was used to knock down the Netrin-1 gene.

HBV [3] = assay: Anti-HBV activities of LIPG-binding peptides delivered into PXB cells-2 (scFv fusions, 4% PEG); type: cell-based; settings: presence of 4% PEG
Procedure: as §1, §2
The anti-HBV activities of LIPG-binding peptides delivered into cells were evaluated using PXB cells and anti-ASGR single-chain antibody-LIPG-binding peptide fusions. The anti-HBV activity was evaluated in the presence of 4% PEG. The evaluation of the anti-HBV effect in the presence of PEG is more stringent than under the conditions in Example 18 without the presence of PEG because the HBV-DNA and cccDNA copy numbers are increased in the presence of PEG. Of the fusions prepared in Example 16, 10M-LN4SN, 10M-LN4N, 10M-LLNTSN, and 10M-LLNTSN-S39 were used. According to the timeline shown in FIG. 42A, the anti-HBV activities of the fusions were evaluated using the methods described in “(10-5) Infection experiment using PXB cells” and “(10-6) Quantification of HBV-DNA and cccDNA”.

[4] = PXB cells, Netrin-1 gene knocked down, vs control

LNVGYVFYP (LIPH4-15) [KIgk-LIPH4-15] was tested, and the “binding to LIPG in pull-down assay” value [1] was “positive”.

“CPCVNGATRHRPTSLC (LIPH4-16) [KIgk-LIPH4-16]” was tested, and the “binding to LIPG in pull-down assay” value [1] was “positive”.

LNCRHNTAGRHCHYCK (LIPH4-NTNB) was tested, and the “anti-HBV activity (effect to reduce HBV DNA and cccDNA copy numbers)” value (HBV [2]) was “high anti-HBV activity” and the “anti-HBV activity (effect to reduce HBV DNA and cccDNA copy numbers)” value (HBV [2]; listed as polypeptide (12)) was “as strongly as the polypeptides (5) to (10)”.

In the case of SLYTGFRAH (LIPH4-2) [KIgk-LIPH4-2], the “binding to LIPG in pull-down assay” value [1] is reported as “positive”.

RCRQSWNTM (LIPH4-14) [KIgk-LIPH4-14] was tested, and the “binding to LIPG in pull-down assay” value [1] was “positive”.

GADLRRGCC (LIPH4-87) [KIgk-LIPH4-87] was tested, and the “binding to LIPG in pull-down assay” value [1] was “positive”.

In the case of LVPWLRYAY (LIPH4-12) [KIgk-LIPH4-12], the “binding to LIPG in pull-down assay” value [1] is reported as “positive”.

In the case of IRNVNHSDH (LIPH4-74) [KIgk-LIPH4-74], the “binding to LIPG in pull-down assay” value [1] is reported as “positive”.

With RKSGGVCLNCRHNTAG (LIPH4-NTNA) the “anti-HBV activity (effect to reduce HBV DNA and cccDNA copy numbers)” value (HBV [2]) was “as strongly as the polypeptides (5) to (10)”.

For “LCECRDVLSCYYITDT (LIPH4-90) [KIgk-LIPH4-90]”, the “binding to LIPG in pull-down assay” value [1] was “positive”.

For “Netrin-1 shRNA: shRNA of SEQ ID NO: 64 used to knock down the Netrin-1 gene (guide CCGGGACTGCGATTCCTACTGCAAGCTCGAGCTTGCAGTAGGAATCGCAGTCTTTTTTG) [reference compound]”, the HBV-DNA copy number (HBV [2]; [4]) was “remarkably increased” and the cccDNA copy number (HBV [2]; [4]) was “remarkably increased”.

B1: 10M-LN4SN: fusion of ASGR3-10M scFv, cleavage sequence, LIPH4-N4BP1b, S28, nuclear localization signal (SEQ ID NO: 134) (protein)
chain: RVRRSNCRINTFRDYKDDDDKHHHHHHHPFVIGAGVLGALGTGIGGITTSTQFYYKPAAKRVKLD
modifications: cleavage sequence + LIPH4-N4BP1b + Flag-tag + His-tag + S28 + nuclear localization signal
For B1, the HBV-DNA copy number (HBV [3]) was “remarkably reduced” and the cccDNA copy number (HBV [3]) was “remarkably reduced”.

B2: 10M-LLNTSN: fusion of ASGR3-10M scFv, cleavage sequence, LIPH4-LNTNBs, S28, nuclear localization signal (SEQ ID NO: 131) (protein)
chain: B1 chain with S5L, I9H, F12A, R13G
modifications: cleavage sequence + LIPH4-NTNBs + Flag-tag + His-tag + S28 + nuclear localization signal
B2 was tested, and the HBV-DNA copy number (HBV [3]) was “remarkably reduced” and the cccDNA copy number (HBV [3]) was “remarkably reduced”.

B3: 10M-LLNTSN-S39: fusion of ASGR3-10M scFv, cleavage sequence, LIPH4-LNTNBs, S39, nuclear localization signal (SEQ ID NO: 132) (protein)
chain: RVRRLNCRHNTAGDYKDDDDKHHHHHHHPFVIGAGVLGALGTGIGGITTSTQFYYKLSQELNGDMERPAAKRVKLD
modifications: cleavage sequence + LIPH4-NTNBs + Flag-tag + His-tag + S39 + nuclear localization signal
With B3 the HBV-DNA copy number (HBV [3]) was “remarkably reduced” and the cccDNA copy number (HBV [3]) was “remarkably reduced”.

B4: 10M-LN4N: fusion of ASGR3-10M scFv, cleavage sequence, LIPH4-N4BP1a, S28, nuclear localization signal (SEQ ID NO: 133) (protein)
chain: RVRRSNCRINTFRTVPIEQKDYKDDDDKHHHHHHHPFVIGAGVLGALGTGIGGITTSTQFYYKPAAKRVKLD
modifications: cleavage sequence + LIPH4-N4BP1a + Flag-tag + His-tag + S28 + nuclear localization signal
For B4, the HBV-DNA copy number (HBV [3]) was “remarkably reduced” and the cccDNA copy number (HBV [3]) was “remarkably reduced”.
